How the values were obtained:
[1] = molecular target: actin binding domain of plectin isoform 1a (P1aABD); assay: ITC
[2] = molecular target: C-terminally CFP-tagged P1aABD (P1aABD-CFP); assay: FRET or BRET
P1aABDΔ22 = assay: ITC

Substance: N-ter lobe of calmodulin (CaMNL) (from UniProt P0DP23 10-74) (domain or fragment)
- Kd [1]: 10.5 µM

Substance: C-terminally yellow fluorescence protein (YFP)-tagged CaM (CaM-YFP) (from UniProt P0DP23 1-149) (natural protein)
- FRET efficiency [2]: 19%

Substance: calmodulin (CaM), full length, with Ca2+ (from UniProt P0DP23 1-149) (natural protein)
- Kd (P1aABDΔ22): 2.6 µM
- KD calculated with the competitive binding model [1]: 2.3 µM
- Kd [1]: 4.2 µM
- apparent KD in the presence of β4Fn12 (displacement) [1]: 7.7 µM
